# Results from the supplement of paper PMC11780869.
# Tested on: Bacillus subtilis
# Assay: cleaved RNA product abundance (RNA/gDNA barcode ratio) relative to median wild-type variant (ratio to wild type); higher = more accumulation of the downstream cleavage product
# Outline: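 The B. subtilis chromosome carried reporter mRNAs, truncated aprE or tetM, containing barcoded RNase Y cleavage-site windows mutagenized using oligos with a 9% error rate. After growth in LB at 37°C from OD600 0.0003 to 0.3, cleaved RNA was gel-selected, reverse transcribed and barcode-sequenced next to genomic DNA barcodes, with UMI collapsing. Each construct's RNA:gDNA barcode ratio was scaled to the median construct with the unmutated site. That scaled ratio is reported as cleaved product abundance.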
# [1] = experiment (reporter, strain, medium): exp 8a: truncated aprE reporter, strain BJT201 with 2% xylose (RNase J1 expressed), cleavage site: glnRA (positions -5 to +31 mutated)
# [2] = experiment (reporter, strain, medium): exp 4a: truncated aprE reporter, strain BJT201 with 2% xylose (RNase J1 expressed), cleavage site: cggR-gapA (positions -7 to +36 mutated)
# [3] = experiment (reporter, strain, medium): exp 2b: truncated aprE reporter, strain BJT200, cleavage site: cggR-gapA (positions -7 to +36 mutated)
Sequence,cleaved RNA product abundance [2],cleaved RNA product abundance [3],also measured
CGACATGTCCCGCTTCTTTCATTATTCCGTTAGCAACTGTTTTGCTATAGACATTTACCTTTTAAGAGGAGGAAT,–,–,cleaved RNA product abundance [1]: 0.917
ACAGACGAAGGAGCCGCAAAGAAGTTATTAAGGTATGAATAATCTCTCAATATAAATATCTCTCACTTATTTAAA,0.162,–,–
ACAGACGAAGGAGCCGCAAAGAAGTTACAAAGGGATGAATAATCCCACAATATAAATATCTCTCACTTATTTAAA,0.157,–,–
ACAGACGAAGGAGCCGCAAAGAAGTTATTAAGGGATGAATAATCTATCAATATAAATATCTCTCACTTATTTAAA,0.135,–,–
CGACATGTCCCGCTTCTTTCATTAATCCGTAAGCAACTGTTTTGCTATATACATTTACATTTTAAGAGGAGGAAT,–,–,cleaved RNA product abundance [1]: 0.531
ACAGACGAAGGAGCCGCAAAAAAGTTATTAACGGATGAATAATCCTTCAATATAAATATCTCTCACTTATTTAAA,0.191,–,–
ACAGACGAAGGAGCCGCAAAGAAGTTATTAAGGGATGAATAATCCCTCAATATATAGATCTCTCACTTATTTAAA,0.77,–,–
ACAGACGAAGGAGCCGCAAAGAAGTCATTAAGGGATTAATAATCCCTCAATATAAATATCTCTCACTTATTTAAA,0.236,–,–
ACAGACGAAGGAGCCGCAAAGAAGTTATTAAGGGATGATTAATCCCTCAATAGAAATATCTCTCACTTATTTAAA,0.0935,–,–
ACAGACGAAGGAGCCGCAAAGAATTTATTAAGGGATGAATAATCCCTCAATATAAATATCTCTCACTTATTTAAA,0.743,0.775,"cleaved RNA product abundance (experiment (reporter, strain, medium): exp 6: tetM reporter, strain 168, cleavage site: cggR-gapA (positions -7 to +36 mutated)): 0.623"
CGACATGTCCCGCTTCTTTCATTAATCAGTTAGCAACAGTTTTGCTATATACATTTACCTTTTAAGAGGAGGAAT,–,–,cleaved RNA product abundance [1]: 0.832
ACAGACGAAGGAGCCGCAAAGAAGTTATTAAGGGAAGAATAATCCTTCAATATAAATATCTCTCACTTATTTAAA,0.144,0.13,–
ACAGACGAAGGAGCCGCAAAGAAGGTATTAAGGGATGAAAAATCCCTCAATATAAATATCTCTCACTTATTTAAA,–,1.25,–
ACAGACGAAGGAGCCGCAAAGAAGTTATTAAGGTATGAATACTCCCTCAATATAAATATCTCTCACTTATTTAAA,0.135,0.0931,–
ACAGACGAAGGAGCCGCTAAGAAGTTATTAAGGGTTGAATAATCCCTCAATATAAATATCTCTCACTTATTTAAA,0.377,–,–
ACAGACGAAGGAGCCGCAAAGAACTTATTAAGGGATGAATAATCCCTAAATATAAATATCTCTCACTTATTTAAA,0.454,0.258,–
ACAGACGAAGGAGCCGCAATGAAGTTATTAAGGGATGAATAATCCCTGAATATAAATATCTCTCACTTATTTAAA,0.713,–,–
ACAGACGAAGGAGCCGCAAAGAAGATATTAAGGGATGAATAATCCATCAATATAAATATCTCTCACTTATTTAAA,0.207,–,–
ACAGACGAAGGAGCCGCAAAAAAGCTATTAAGGGATGAATAATCCCTCAATATAAATATCTCTCACTTATTTAAA,0.855,0.392,–
ACAGACGAAGGAGCCGCAAAGAAGTTATTAAGGGATGAATAATCGCTCAATATAAATACCTCTCACTTATTTAAA,–,0.0956,–
ACAGACGAAGGAGCCGCAAAGAAGTTATAAAGGGTTGAATAATCCCTCAATATAAATATCTCTCACTTATTTAAA,0.24,0.163,–
CGACATGTCCCGCTTCTTTCATTATTCCTTTAGCAACTGTTTTGCTATATACATTTACCTTTTAAGAGGAGGAAT,–,–,cleaved RNA product abundance [1]: 1.04
CGACATGTCCCGCTTCTTTCATTAATCCGTTAGCAACTGTTTTGCTATATACATTTAACTTTTAAGAGGAGGAAT,–,–,cleaved RNA product abundance [1]: 1.24
CGACATGTCCCGCTTCTTTCATTATTGCGTTAGCAACTGTTTTGCTATATACATTTACCTTTTAAGAGGAGGAAT,–,–,cleaved RNA product abundance [1]: 1.54
ACAGACGAAGGAGCCGCAATGAAGTTATTAAGGGATGAATAATACCTCAATATAAATATCTCTCACTTATTTAAA,0.138,–,–
CGACATGTCCCGCTTCTTTCATTAATACGTTAGCAACTGTTTTGCCATATACATTTACCTTTTAAGAGGAGGAAT,–,–,cleaved RNA product abundance [1]: 0.23
